# Experimental data as given in US20140087995A1 (published 2014).
# Numbered stars: 1 amine (or outer) side, 2 acyl side, 3 side chain; on linkers, the order of the positions; unused ones are H or OH. Bridge positions count the residues as written; N and C are the ends. Side chains are listed from the residue outwards. Ends that are not written are not given here. * marks the point of attachment. C20 diacid = O=C(O)CCCCCCCCCCCCCCCCCCC(=O)*; γGlu = O=C(O)[C@H](CCC(=O)[*:2])N[*:1]; AEEA = NCCOCCOCC(=O)O
# B1: N^ε1-[2-[2-[2-[[(4S)-4-carboxy-4-(19-carboxynonadecanoylamino)butanoyl]amino]ethoxy]ethoxy]acetyl]-[Arg17,Pro21,Pro27,His34]-h-amylin (peptide)
# peptide: K([AEEA-γGlu-C20 diacid])CNTATCATQRLANFLRHSSPNFGAIPSSTNVGHNTY-NH2
# modifications: disulfide 2-7; N-terminus assumed
# SMILES: CC[C@H](C)[C@H](NC(=O)[C@H](C)NC(=O)CNC(=O)[C@H](Cc1ccccc1)NC(=O)[C@H](CC(N)=O)NC(=O)[C@@H]1CCCN1C(=O)[C@H](CO)NC(=O)[C@H](CO)NC(=O)[C@H](Cc1c[nH]cn1)NC(=O)[C@H](CCCNC(=N)N)NC(=O)[C@H](CC(C)C)NC(=O)[C@H](Cc1ccccc1)NC(=O)[C@H](CC(N)=O)NC(=O)[C@H](C)NC(=O)[C@H](CC(C)C)NC(=O)[C@H](CCCNC(=N)N)NC(=O)[C@H](CCC(N)=O)NC(=O)[C@@H](NC(=O)[C@H](C)NC(=O)[C@@H]1CSSC[C@H](NC(=O)[C@@H](N)CCCCNC(=O)COCCOCCNC(=O)CC[C@H](NC(=O)CCCCCCCCCCCCCCCCCCC(=O)O)C(=O)O)C(=O)N[C@@H](CC(N)=O)C(=O)N[C@@H]([C@@H](C)O)C(=O)N[C@@H](C)C(=O)N[C@@H]([C@@H](C)O)C(=O)N1)[C@@H](C)O)C(=O)N1CCC[C@H]1C(=O)N[C@@H](CO)C(=O)N[C@@H](CO)C(=O)N[C@H](C(=O)N[C@@H](CC(N)=O)C(=O)N[C@H](C(=O)NCC(=O)N[C@@H](Cc1c[nH]cn1)C(=O)N[C@@H](CC(N)=O)C(=O)N[C@H](C(=O)N[C@@H](Cc1ccc(O)cc1)C(N)=O)[C@@H](C)O)C(C)C)[C@@H](C)O
# notes: also called 17R, 21P, 27P, 34H
# B2: N^ε1-[2-[2-[2-[[(4S)-4-carboxy-4-(19-carboxynonadecanoylamino)butanoyl]amino]ethoxy]ethoxy]acetyl]-[Arg17,Pro21,Pro27,Pro28,Pro31]-h-amylin (peptide)
# peptide: K([AEEA-γGlu-C20 diacid])CNTATCATQRLANFLRHSSPNFGAIPPSTPVGSNTY-NH2
# modifications: disulfide 2-7
# notes: also called 17R, 21P, 27P, 28P, 31P
# B3: N^ε1-[2-[2-[2-[[(4S)-4-carboxy-4-(19-carboxynonadecanoylamino)butanoyl]amino]ethoxy]ethoxy]acetyl]-[Arg17,Pro21,Pro27,Pro28,Pro34]-h-amylin (peptide)
# peptide: K([AEEA-γGlu-C20 diacid])CNTATCATQRLANFLRHSSPNFGAIPPSTNVGPNTY-NH2
# modifications: disulfide 2-7; N-terminus assumed
# SMILES: CC[C@H](C)[C@H](NC(=O)[C@H](C)NC(=O)CNC(=O)[C@H](Cc1ccccc1)NC(=O)[C@H](CC(N)=O)NC(=O)[C@@H]1CCCN1C(=O)[C@H](CO)NC(=O)[C@H](CO)NC(=O)[C@H](Cc1c[nH]cn1)NC(=O)[C@H](CCCNC(=N)N)NC(=O)[C@H](CC(C)C)NC(=O)[C@H](Cc1ccccc1)NC(=O)[C@H](CC(N)=O)NC(=O)[C@H](C)NC(=O)[C@H](CC(C)C)NC(=O)[C@H](CCCNC(=N)N)NC(=O)[C@H](CCC(N)=O)NC(=O)[C@@H](NC(=O)[C@H](C)NC(=O)[C@@H]1CSSC[C@H](NC(=O)[C@@H](N)CCCCNC(=O)COCCOCCNC(=O)CC[C@H](NC(=O)CCCCCCCCCCCCCCCCCCC(=O)O)C(=O)O)C(=O)N[C@@H](CC(N)=O)C(=O)N[C@@H]([C@@H](C)O)C(=O)N[C@@H](C)C(=O)N[C@@H]([C@@H](C)O)C(=O)N1)[C@@H](C)O)C(=O)N1CCC[C@H]1C(=O)N1CCC[C@H]1C(=O)N[C@@H](CO)C(=O)N[C@H](C(=O)N[C@@H](CC(N)=O)C(=O)N[C@H](C(=O)NCC(=O)N1CCC[C@H]1C(=O)N[C@@H](CC(N)=O)C(=O)N[C@H](C(=O)N[C@@H](Cc1ccc(O)cc1)C(N)=O)[C@@H](C)O)C(C)C)[C@@H](C)O
# notes: also called 17R, 21P, 27P, 28P, 34P
# B4: N^ε1-[2-[2-[2-[[(4S)-4-carboxy-4-(19-carboxynonadecanoylamino)butanoyl]amino]ethoxy]ethoxy]acetyl]-[Arg17,Pro21,Pro27,Pro29,Pro31]-h-amylin (peptide)
# peptide: K([AEEA-γGlu-C20 diacid])CNTATCATQRLANFLRHSSPNFGAIPSPTPVGSNTY-NH2
# modifications: disulfide 2-7; N-terminus assumed
# SMILES: CC[C@H](C)[C@H](NC(=O)[C@H](C)NC(=O)CNC(=O)[C@H](Cc1ccccc1)NC(=O)[C@H](CC(N)=O)NC(=O)[C@@H]1CCCN1C(=O)[C@H](CO)NC(=O)[C@H](CO)NC(=O)[C@H](Cc1c[nH]cn1)NC(=O)[C@H](CCCNC(=N)N)NC(=O)[C@H](CC(C)C)NC(=O)[C@H](Cc1ccccc1)NC(=O)[C@H](CC(N)=O)NC(=O)[C@H](C)NC(=O)[C@H](CC(C)C)NC(=O)[C@H](CCCNC(=N)N)NC(=O)[C@H](CCC(N)=O)NC(=O)[C@@H](NC(=O)[C@H](C)NC(=O)[C@@H]1CSSC[C@H](NC(=O)[C@@H](N)CCCCNC(=O)COCCOCCNC(=O)CC[C@H](NC(=O)CCCCCCCCCCCCCCCCCCC(=O)O)C(=O)O)C(=O)N[C@@H](CC(N)=O)C(=O)N[C@@H]([C@@H](C)O)C(=O)N[C@@H](C)C(=O)N[C@@H]([C@@H](C)O)C(=O)N1)[C@@H](C)O)C(=O)N1CCC[C@H]1C(=O)N[C@@H](CO)C(=O)N1CCC[C@H]1C(=O)N[C@H](C(=O)N1CCC[C@H]1C(=O)N[C@H](C(=O)NCC(=O)N[C@@H](CO)C(=O)N[C@@H](CC(N)=O)C(=O)N[C@H](C(=O)N[C@@H](Cc1ccc(O)cc1)C(N)=O)[C@@H](C)O)C(C)C)[C@@H](C)O
# notes: also called 17R, 21P, 27P, 29P, 31P
# B5: N^ε1-[2-[2-[2-[[(4S)-4-carboxy-4-(19-carboxynonadecanoylamino)butanoyl]amino]ethoxy]ethoxy]acetyl]-[Arg17,Pro21,Pro27,Pro29,Pro34]-h-amylin (peptide)
# peptide: K([AEEA-γGlu-C20 diacid])CNTATCATQRLANFLRHSSPNFGAIPSPTNVGPNTY-NH2
# modifications: disulfide 2-7; N-terminus assumed
# SMILES: CC[C@H](C)[C@H](NC(=O)[C@H](C)NC(=O)CNC(=O)[C@H](Cc1ccccc1)NC(=O)[C@H](CC(N)=O)NC(=O)[C@@H]1CCCN1C(=O)[C@H](CO)NC(=O)[C@H](CO)NC(=O)[C@H](Cc1c[nH]cn1)NC(=O)[C@H](CCCNC(=N)N)NC(=O)[C@H](CC(C)C)NC(=O)[C@H](Cc1ccccc1)NC(=O)[C@H](CC(N)=O)NC(=O)[C@H](C)NC(=O)[C@H](CC(C)C)NC(=O)[C@H](CCCNC(=N)N)NC(=O)[C@H](CCC(N)=O)NC(=O)[C@@H](NC(=O)[C@H](C)NC(=O)[C@@H]1CSSC[C@H](NC(=O)[C@@H](N)CCCCNC(=O)COCCOCCNC(=O)CC[C@H](NC(=O)CCCCCCCCCCCCCCCCCCC(=O)O)C(=O)O)C(=O)N[C@@H](CC(N)=O)C(=O)N[C@@H]([C@@H](C)O)C(=O)N[C@@H](C)C(=O)N[C@@H]([C@@H](C)O)C(=O)N1)[C@@H](C)O)C(=O)N1CCC[C@H]1C(=O)N[C@@H](CO)C(=O)N1CCC[C@H]1C(=O)N[C@H](C(=O)N[C@@H](CC(N)=O)C(=O)N[C@H](C(=O)NCC(=O)N1CCC[C@H]1C(=O)N[C@@H](CC(N)=O)C(=O)N[C@H](C(=O)N[C@@H](Cc1ccc(O)cc1)C(N)=O)[C@@H](C)O)C(C)C)[C@@H](C)O
# notes: also called 17R, 21P, 27P, 29P, 34P
# B6: N^ε1-[2-[2-[2-[[(4S)-4-carboxy-4-(19-carboxynonadecanoylamino)butanoyl]amino]ethoxy]ethoxy]acetyl]-[Arg17,Pro21,Pro27,Pro31,His35]-h-amylin (peptide)
# peptide: K([AEEA-γGlu-C20 diacid])CNTATCATQRLANFLRHSSPNFGAIPSSTPVGSHTY-NH2
# modifications: disulfide 2-7; N-terminus assumed
# SMILES: CC[C@H](C)[C@H](NC(=O)[C@H](C)NC(=O)CNC(=O)[C@H](Cc1ccccc1)NC(=O)[C@H](CC(N)=O)NC(=O)[C@@H]1CCCN1C(=O)[C@H](CO)NC(=O)[C@H](CO)NC(=O)[C@H](Cc1c[nH]cn1)NC(=O)[C@H](CCCNC(=N)N)NC(=O)[C@H](CC(C)C)NC(=O)[C@H](Cc1ccccc1)NC(=O)[C@H](CC(N)=O)NC(=O)[C@H](C)NC(=O)[C@H](CC(C)C)NC(=O)[C@H](CCCNC(=N)N)NC(=O)[C@H](CCC(N)=O)NC(=O)[C@@H](NC(=O)[C@H](C)NC(=O)[C@@H]1CSSC[C@H](NC(=O)[C@@H](N)CCCCNC(=O)COCCOCCNC(=O)CC[C@H](NC(=O)CCCCCCCCCCCCCCCCCCC(=O)O)C(=O)O)C(=O)N[C@@H](CC(N)=O)C(=O)N[C@@H]([C@@H](C)O)C(=O)N[C@@H](C)C(=O)N[C@@H]([C@@H](C)O)C(=O)N1)[C@@H](C)O)C(=O)N1CCC[C@H]1C(=O)N[C@@H](CO)C(=O)N[C@@H](CO)C(=O)N[C@H](C(=O)N1CCC[C@H]1C(=O)N[C@H](C(=O)NCC(=O)N[C@@H](CO)C(=O)N[C@@H](Cc1c[nH]cn1)C(=O)N[C@H](C(=O)N[C@@H](Cc1ccc(O)cc1)C(N)=O)[C@@H](C)O)C(C)C)[C@@H](C)O
# notes: also called 17R, 21P, 27P, 31P, 35H
# B7: N^ε1-[2-[2-[2-[[(4S)-4-carboxy-4-(19-carboxynonadecanoylamino)butanoyl]amino]ethoxy]ethoxy]acetyl]-[Arg17,Pro21,Pro27,Pro34,His35]-h-amylin (peptide)
# peptide: K([AEEA-γGlu-C20 diacid])CNTATCATQRLANFLRHSSPNFGAIPSSTNVGPHTY-NH2
# modifications: disulfide 2-7; N-terminus assumed
# SMILES: CC[C@H](C)[C@H](NC(=O)[C@H](C)NC(=O)CNC(=O)[C@H](Cc1ccccc1)NC(=O)[C@H](CC(N)=O)NC(=O)[C@@H]1CCCN1C(=O)[C@H](CO)NC(=O)[C@H](CO)NC(=O)[C@H](Cc1c[nH]cn1)NC(=O)[C@H](CCCNC(=N)N)NC(=O)[C@H](CC(C)C)NC(=O)[C@H](Cc1ccccc1)NC(=O)[C@H](CC(N)=O)NC(=O)[C@H](C)NC(=O)[C@H](CC(C)C)NC(=O)[C@H](CCCNC(=N)N)NC(=O)[C@H](CCC(N)=O)NC(=O)[C@@H](NC(=O)[C@H](C)NC(=O)[C@@H]1CSSC[C@H](NC(=O)[C@@H](N)CCCCNC(=O)COCCOCCNC(=O)CC[C@H](NC(=O)CCCCCCCCCCCCCCCCCCC(=O)O)C(=O)O)C(=O)N[C@@H](CC(N)=O)C(=O)N[C@@H]([C@@H](C)O)C(=O)N[C@@H](C)C(=O)N[C@@H]([C@@H](C)O)C(=O)N1)[C@@H](C)O)C(=O)N1CCC[C@H]1C(=O)N[C@@H](CO)C(=O)N[C@@H](CO)C(=O)N[C@H](C(=O)N[C@@H](CC(N)=O)C(=O)N[C@H](C(=O)NCC(=O)N1CCC[C@H]1C(=O)N[C@@H](Cc1c[nH]cn1)C(=O)N[C@H](C(=O)N[C@@H](Cc1ccc(O)cc1)C(N)=O)[C@@H](C)O)C(C)C)[C@@H](C)O
# notes: also called 17R, 21P, 27P, 34P, 35H
# Target: T1, human amylin receptor (human, UniProt P30988 25-474; O60896 24-148, limits assumed)
# T1 construct: whole, on cells; Calcitonin receptor plus RAMP-3 gives the amylin 3(a) receptor; membranes of Amylin 3(a)/CRE-luc cells were used; also called hAmylin-R; hAmylinR
# T1 sequence (looked up) 1: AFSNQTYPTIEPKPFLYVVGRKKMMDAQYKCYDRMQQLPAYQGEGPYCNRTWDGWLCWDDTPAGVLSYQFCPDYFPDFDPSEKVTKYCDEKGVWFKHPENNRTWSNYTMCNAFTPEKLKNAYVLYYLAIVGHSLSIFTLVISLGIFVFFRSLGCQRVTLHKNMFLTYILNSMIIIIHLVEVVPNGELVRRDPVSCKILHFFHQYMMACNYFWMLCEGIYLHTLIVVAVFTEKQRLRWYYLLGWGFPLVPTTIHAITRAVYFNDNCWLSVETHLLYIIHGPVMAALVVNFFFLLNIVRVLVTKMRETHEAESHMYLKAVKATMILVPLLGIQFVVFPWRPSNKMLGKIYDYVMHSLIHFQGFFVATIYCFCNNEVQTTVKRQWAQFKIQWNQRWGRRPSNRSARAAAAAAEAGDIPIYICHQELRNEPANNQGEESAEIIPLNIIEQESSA
# T1 sequence (looked up) 2: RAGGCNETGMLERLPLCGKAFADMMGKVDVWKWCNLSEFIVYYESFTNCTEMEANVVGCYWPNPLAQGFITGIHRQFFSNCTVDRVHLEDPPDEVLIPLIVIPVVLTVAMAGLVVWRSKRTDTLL
# Assay: SPA competition binding, displacement of 125I-rat amylin from membranes with human amylin 3(a) receptor (Assay V)
# Outline: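 SPA beads with BHK Amylin 3(a)/CRE-luc cell membranes (35 ng/μL final) in 50 mM Hepes pH 7.4, 1 mM CaCl2, 5 mM MgCl₂, 0.1% OA, 0.02% Tween20.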
row,Binder,IC50
1,B1,215 pM
2,B2,52 pM
3,B3,42 pM
4,B4,30 pM
5,B5,49 pM
6,B6,115 pM
7,B7,88 pM
